Measurements published in US20090118167A1, “Selective Vpac2 Receptor Peptide Agonists” (Eli Lilly and Company Patent Division, priority 2004, published 2009).
Marks after values point to notes of the source that are not given here. Square brackets hold non-standard residues; d marks the D form. Ends that are not written are not given here. Nle = CCCC[C@H](N)C(=O)O; Orn = NCCC[C@H](N)C(=O)O; Aib = CC(C)(N)C(=O)O

Tests used:
human VPAC1 = target: T1, human VPAC1 (Homo sapiens, UniProt P32241); test: Filter binding assay, 125I-labeled VIP tracer; settings: membranes from cells transiently transfected with human VPAC1; read-out: Human receptor binding IC50 VPAC1
T1 construct: expressed in transfected cells
T1 sequence (P32241 31-457): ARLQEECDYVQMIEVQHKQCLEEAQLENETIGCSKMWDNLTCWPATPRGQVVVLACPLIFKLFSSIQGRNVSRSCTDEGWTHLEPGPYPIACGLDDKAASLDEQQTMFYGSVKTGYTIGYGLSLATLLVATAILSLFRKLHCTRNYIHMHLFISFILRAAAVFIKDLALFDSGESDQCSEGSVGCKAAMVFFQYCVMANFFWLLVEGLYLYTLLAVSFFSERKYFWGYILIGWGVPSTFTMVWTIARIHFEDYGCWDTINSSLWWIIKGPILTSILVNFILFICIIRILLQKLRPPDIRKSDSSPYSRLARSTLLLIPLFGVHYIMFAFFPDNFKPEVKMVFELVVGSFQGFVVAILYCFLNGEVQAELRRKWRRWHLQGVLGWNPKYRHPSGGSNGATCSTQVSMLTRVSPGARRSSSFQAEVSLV
Experimental: (§1) In order to prepare the filter plates, the presoak solution is aspirated by vacuum filtration. The plates are flushed twice with 200 μL flush buffer. 200 μL blocking buffer is added to the filter plate. The filter plate is then incubated with 200 μL presoak solution for 1 hour at room temperature.
(§2) The assay plate is filled with 25 μL assay buffer, 25 μL membranes (2.5 μg) suspended in assay buffer, 25 μL compound (agonist) in assay buffer, and 25 μL tracer (about 40000 cpm) in assay buffer. The filled plate is incubated for 1 hour with shaking.
(§3) The transfer from assay plate to filter plate is conducted. The blocking buffer is aspirated by vacuum filtration and washed two times with flush buffer. 90 μL is transferred from the assay plate to the filter plate. The 90 μL transferred from assay plate is aspirated and washed three times with 200 μL flush buffer. The plastic support is removed. It is dried for 1 hour at 60° C. 30 μL Microscint is added. The count is performed.
(§4) Values reported are single results or the mean of two or more independent runs.

human PAC1 = target: T2, human PAC1 (Homo sapiens, UniProt P41586); test: Filter binding assay, 125I-labeled PACAP-27 tracer; settings: membranes from cells transiently transfected with human PAC1; read-out: Human receptor binding IC50 PAC1
T2 construct: expressed in transfected cells; membranes)
T2 sequence (P41586 21-468): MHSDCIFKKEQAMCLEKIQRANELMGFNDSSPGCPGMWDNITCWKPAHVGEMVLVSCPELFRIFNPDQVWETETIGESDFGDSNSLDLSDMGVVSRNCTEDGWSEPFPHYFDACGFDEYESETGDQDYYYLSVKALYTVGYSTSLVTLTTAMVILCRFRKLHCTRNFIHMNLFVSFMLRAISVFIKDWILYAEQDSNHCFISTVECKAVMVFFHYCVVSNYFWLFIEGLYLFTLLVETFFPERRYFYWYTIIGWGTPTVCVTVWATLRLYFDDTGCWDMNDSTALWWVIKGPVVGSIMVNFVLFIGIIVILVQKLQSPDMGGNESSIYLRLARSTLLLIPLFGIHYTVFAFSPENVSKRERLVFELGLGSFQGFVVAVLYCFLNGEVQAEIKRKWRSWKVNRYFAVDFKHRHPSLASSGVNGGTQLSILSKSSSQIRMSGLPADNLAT
Experimental: as §1, §2, §3, §4

[1] = rat, in vivo, sc, 0.1 mg/kg
Experimental: Healthy Fisher 344 rats (3 animals per group) are injected with 100 μg compound/kg (compound amount based on peptide content and dissolved in PBS buffer). […] PK parameters are then calculated using a model-independent method (WinNonlin Pro, Pharsight Corp., Mountain View, Calif., USA).

Normal Wistar rats = test: Intravenous glucose tolerance test (IVGTT); type: in vivo, rat
Experimental: Intravenous glucose tolerance test (IVGTT): Normal Wistar rats are fasted overnight and are anesthetized prior to the experiment. A blood sampling catheter is inserted into the rats. The compound is given in the jugular vein. Blood samples are taken from the carotid artery. A blood sample is drawn immediately prior to the injection of glucose along with the compound. After the initial blood sample, glucose mixed with compound is injected intravenously (i.v.). Compound may also be injected intravenously or subcutaneously prior to the glucose challenge. A glucose challenge of 0.5 g/kg body weight is given, injecting a total of 1.5 mL vehicle with glucose and agonist per kg body weight. The peptide concentrations are varied to produce the desired dose in μg/kg. Blood samples are drawn at 2, 4, 6 and 10 minutes after giving glucose. The control group of animals receives the same vehicle along with glucose, but with no compound added. In some instances, a 30 minute post-glucose blood sample is drawn. Aprotinin is added to the blood sample (250-500 kIU/ml blood). The serum is then analyzed for glucose and insulin using standard methodologies.
The assay uses a formulated and calibrated peptide stock in PBS. Normally, this stock is a prediluted 100 μM stock. However, a more concentrated stock with approximately 1 mg agonist per mL is used. The specific concentration is always known. Variability in the maximal response is mostly due to variability in the vehicle dose.

human VPAC2 receptor [2] = target: T3, human VPAC2 receptor (human, UniProt P41587 24-438); test: cell-based or functional assay
T3 sequence (looked up): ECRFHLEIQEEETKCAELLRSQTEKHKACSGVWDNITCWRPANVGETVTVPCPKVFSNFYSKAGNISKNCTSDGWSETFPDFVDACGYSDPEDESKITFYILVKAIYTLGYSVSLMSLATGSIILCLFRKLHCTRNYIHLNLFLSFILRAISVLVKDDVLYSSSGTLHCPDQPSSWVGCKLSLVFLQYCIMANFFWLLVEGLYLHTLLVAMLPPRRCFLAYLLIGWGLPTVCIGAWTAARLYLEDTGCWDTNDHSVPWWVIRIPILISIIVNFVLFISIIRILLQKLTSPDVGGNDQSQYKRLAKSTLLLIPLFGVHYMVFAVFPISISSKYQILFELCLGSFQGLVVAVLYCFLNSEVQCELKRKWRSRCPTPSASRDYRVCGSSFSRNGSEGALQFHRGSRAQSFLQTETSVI

human VPAC2 receptor [3] = target: T3, human VPAC2 receptor; test: filter binding assay, human VPAC2 membranes, displacement of 125I-VIP
Experimental: as §2, §3

For “P274: cyclic PEGylated VPAC2 receptor peptide agonist (HSDAVFTENYTKL[Aib]KQ[Nle]AAKKYLNDLKQKGGPSSGAPPPC; not fully specified (residue 40); ends and bridges not checked; also: cyclic, bridge type and places not given here, PEGylated, site not placed) [Agonist P274]”, the IC50 (human VPAC1) was greater than 3000 nM and the IC50 (human PAC1) was greater than 25 µM.

“P463: cyclic PEGylated VPAC2 receptor peptide agonist (HSDAVFTENYT[Orn]LR[Aib]Q[Nle]AA[Orn]KYLNDL[Orn][Orn]GGPSSGAPPPC; also: cyclic, bridge type and places not given here, PEGylated, site not given here) [Agonist P463]” gave an IC50 (human VPAC1) greater than 3000 nM and an IC50 (human PAC1) greater than 25 µM.

With “P239: cyclic PEGylated VPAC2 receptor peptide agonist (HSDAVFTENYTKLRKQ[Nle]AAKKYLNDLKQGGPSSGAPPPC; not fully specified (residue 39); ends and bridges not checked; also: cyclic, bridge type and places not given here, PEGylated, site not placed) [Agonist P239]” the IC50 (human VPAC1) was greater than 3000 nM and the IC50 (human PAC1) was greater than 25 µM.

With “P277: cyclic PEGylated VPAC2 receptor peptide agonist (HSDAVFTENYTKLRKQ[Nle]AAKKYLNDLKQGGPSSGAPPPC; ends and bridges not checked; also: cyclic, bridge type and places not given here, PEGylated, site not placed) [Agonist P277]” the IC50 (human VPAC1) was greater than 3000 nM and the IC50 (human PAC1) was greater than 25 µM.

Work on “P279: cyclic PEGylated VPAC2 receptor peptide agonist (HSDAVFTENYTKLR[Aib]Q[Nle]AAKKYLNDLKKGGPSSGAPPPC; not fully specified (residue 39); ends and bridges not checked; also: cyclic, bridge type and places not given here, PEGylated, site not placed) [Agonist P279]” yielded an IC50 (human VPAC1) greater than 3000 nM and an IC50 (human PAC1) greater than 25 µM.

In the case of “P376: cyclic PEGylated VPAC2 receptor peptide agonist (HSDAVFTENYT[Orn]LR[Aib]Q[Nle]AA[Orn]KYLNDL[Orn][Orn]GGPSSGAPPPC; also: cyclic, bridge type and places not given here, PEGylated, site not placed) [Agonist P376]”, the IC50 (human VPAC1) is reported as greater than 3000 nM and the IC50 (human PAC1) is reported as greater than 25 µM.

For “P348: cyclic PEGylated VPAC2 receptor peptide agonist (HSDAVFTENYTKLR[Aib]Q[Nle]AAKKYLNDLK[Aib]KGGPSSGAPPPC; not fully specified (residue 40); ends and bridges not checked; also: cyclic, bridge type and places not given here, PEGylated, site not placed) [Agonist P348]”, the IC50 (human VPAC1) was greater than 1500 nM, the IC50 (human PAC1) was greater than 25 µM and the AUC0-last [1] was 1007 ng·h/mL. For the same molecule, the Cl/F [1] was 90 mL/h/kg and the Vd/F [1] was 2224 mL/kg.

With “P201: cyclic PEGylated VPAC2 receptor peptide agonist; P200 reacted with methoxy-PEG2-MAL-40K (HSDAVFTENYTKLRKQ[Nle]AAKKYLNDLKKGGPSSGAPPPC(methoxy‑PEG2‑MAL‑40K); ends and bridges not checked; also: cyclic, bridge kind and places not given here) [Agonist P201]” the IC50 (human VPAC1) was greater than 3000 nM, the “% increase AUC (insulin, 0-10 min after glucose)” value (“% increase AUC” for short) (Normal Wistar rats; Dose 10 μg/kg iv, 0 h between glucose & compound) was “+146%” and the “% increase AUC” value (Normal Wistar rats; Dose 10 μg/kg iv, 4 h between glucose & compound) was “+104%”. The “% increase AUC” value (Normal Wistar rats; Dose 30 μg/kg iv, 4 h between glucose & compound) was “+191%”, the “% increase AUC” value (Normal Wistar rats; Dose 100 μg/kg iv, 4 h between glucose & compound) was “+183%” and the “% increase AUC” value (Normal Wistar rats; Dose 300 μg/kg, given subcutaneously, 24 h between glucose & compound) was “+209%”. The “% increase AUC” value (Normal Wistar rats; Dose was 90 μg/kg (column 100 μg/kg), given subcutaneously, 24 h between glucose & compound) was “+89** %”, the AUC0-last [1] was 8101 ng·h/mL and the Cl/F [1] was 12 mL/h/kg. It also gave a Vd/F [1] of 214 mL/kg.

With “P255: cyclic PEGylated VPAC2 receptor peptide agonist (HSDAVFTENYTKL[Aib]KQ[Nle]AAKKYLNDLKQGGPSSGAPPPC; not fully specified (residue 39); ends and bridges not checked; also: cyclic, bridge type and places not given here, PEGylated, site not placed) [Agonist P255]” the IC50 (human VPAC1) was greater than 3000 nM, the IC50 (human PAC1) was greater than 25 µM and the AUC0-last [1] was 5797 ng·h/mL. The Cl/F [1] was 17 mL/h/kg and the Vd/F [1] was 389 mL/kg.

With HSDAVFTENYTKL[Aib]KQ[Nle]AAKKYLNDLKQKGGPSSGAPPPC (also: further groups not given here) [P274 (cyclic PEGylated VPAC2 receptor peptide agonist)] the “EC50 for cAMP generation, Alpha screen” value (human VPAC2 receptor [2]) was 76.1 nM and the IC50 (human VPAC2 receptor [3]) was 126 nM.

For HSDAVFTENYTKLR[Aib]Q[Nle]AAKKYLNDLKKGGPSSGAPPPC (also: further groups not given here) [P279 (cyclic PEGylated VPAC2 receptor peptide agonist)], the “EC50 for cAMP generation, Alpha screen” value (human VPAC2 receptor [2]) was 5.93 nM and the IC50 (human VPAC2 receptor [3]) was 7.2 nM.

B1: P268 (cyclic PEGylated VPAC2 receptor peptide agonist) (peptide)
peptide: HSDAVFTENYTKLRKQ[Nle]AAKKYLNDLKQKGGPSSGAPPPC
modifications: ends and bridges not checked; also: cyclic bridge (lactam or disulfide), places not given here, PEGylated, site not given here
With B1 the “EC50 for cAMP generation, Alpha screen” value (human VPAC2 receptor [2]) was 8.82 nM.

With HSDAVFTENYTKLRKQ[Nle]AAKKYLNDLKQGGPSSGAPPPC (also: further groups not given here) [P277 (cyclic PEGylated VPAC2 receptor peptide agonist)] the “EC50 for cAMP generation, Alpha screen” value (human VPAC2 receptor [2]) was 470 nM and the IC50 (human VPAC2 receptor [3]) was 90.9 nM.
